We go through 4 proteins from patent US5354676A, “Recombinant modified thermostable NAD-dependent dehydrogenases and process for their production” (The University of Bristol, priority 1989, dated 1994).

Common to all, as to experiment: purified protein, by the assay type
Substrate in data set [1]: NC(=O)C1=CN([C@@H]2O[C@H](COP(=O)(O)OP(=O)(O)OC[C@H]3O[C@@H](n4cnc5c(N)ncnc54)[C@H](O)[C@@H]3O)[C@@H](O)[C@H]2O)C=CC1
The data set is classed as biochemical, Bacillus stearothermophilus. The following applies: other: WT; in the presence of 0.5 mM pyruvate; pH 6.0.

Substrate in data set [2]: CC(=O)C(=O)O
The data set is classed as biochemical, Bacillus stearothermophilus. The conditions noted are these: other: WT, No FBP, pH 6.

Substrate in data set [3]: NC(=O)C1=CN([C@@H]2O[C@H](COP(=O)(O)OP(=O)(O)OC[C@H]3O[C@@H](n4cnc5c(N)ncnc54)[C@H](O)[C@@H]3O)[C@@H](O)[C@H]2O)C=CC1
It is filed as biochemical. The following applies: in the presence of 0.5 mM pyruvate, pH 6.0.

Substrate in data set [4]: CC(=O)C(=O)O
The data set is classed as biochemical. The following applies: other: MVS, No FBP, pH 6.

Substrate in data set [5]: NC(=O)C1=CN([C@@H]2O[C@H](COP(=O)(O)OP(=O)(O)OC[C@H]3O[C@@H](n4cnc5c(N)ncnc54)[C@H](O)[C@@H]3O)[C@@H](O)[C@H]2O)C=CC1
The following applies: other: GG; in the presence of 0.5 mM pyruvate; pH 6.0.

B1: Bacillus stearothermophilus NAD-dependent L-lactate dehydrogenase, wild type (WT) (Geobacillus stearothermophilus) (protein)
chain: MKNNGGARVVVIGAGFVGASYVFALMNQGIADEIVLIDANESKAIGDAMDFNHGKVFAPKPVDIWHGDYDDCRDADLVVICAGANQKPGETRLDLVDKNIAIFRSIVESVMASGFQGLFLVATNPVDILTYATWKFSGLPHERVIGSGTILDTARFRFLLGEYFSVAPQNVHAYIIGEHGDTELPVWSQAYIGVMPIRKLVESKGEEAQKDLERIFVNVRDAAYQIIEKKGATYYGIAMGLARVTRAILHNENAILTVSAYLDGLYGERDVYIGVPAVINRNGIREVIEIELNDDEKNRFHHSAATLKSVLARAFTR
notes: made in house; host or cells: E. coli
Usually Km stands for the concentration of substrate that gives half-maximal velocity. As usually defined, the kcat/Km is the second-order rate constant that governs catalysis at low substrate concentration. Turning to B1, in data set [1], the Km was 18 µM. Moreover, in data set [2], the Km was found to be 3000 µM and the kcat/Km amounted to 83000 M⁻¹ s⁻¹.

B2: Bacillus stearothermophilus L-lactate dehydrogenase variant MVS (102-5 QKP→MVS) (Geobacillus stearothermophilus; K87V/P88S/Q86M) (protein)
chain: MKNNGGARVVVIGAGFVGASYVFALMNQGIADEIVLIDANESKAIGDAMDFNHGKVFAPKPVDIWHGDYDDCRDADLVVICAGANMVSGETRLDLVDKNIAIFRSIVESVMASGFQGLFLVATNPVDILTYATWKFSGLPHERVIGSGTILDTARFRFLLGEYFSVAPQNVHAYIIGEHGDTELPVWSQAYIGVMPIRKLVESKGEEAQKDLERIFVNVRDAAYQIIEKKGATYYGIAMGLARVTRAILHNENAILTVSAYLDGLYGERDVYIGVPAVINRNGIREVIEIELNDDEKNRFHHSAATLKSVLARAFTR
notes: made in house; host or cells: E. coli TG2, vector pKK223-3
The kcat is the maximal rate divided by the concentration of active sites. In the case of B2, the Km in data set [3] (other: MVS) was determined as 14.5 µM. In addition, in data set [4], the Km came to 15000 µM, the catalytic constant (kcat) amounted to 61 s⁻¹ and the kcat/Km was 4100 M⁻¹ s⁻¹.

B3: Bacillus stearothermophilus L-lactate dehydrogenase variant MVS/GG (102-5 QKP→MVS and 235-6 AA→GG) (Geobacillus stearothermophilus; A222G/A223G/K87V/P88S/Q86M) (protein)
chain: MKNNGGARVVVIGAGFVGASYVFALMNQGIADEIVLIDANESKAIGDAMDFNHGKVFAPKPVDIWHGDYDDCRDADLVVICAGANMVSGETRLDLVDKNIAIFRSIVESVMASGFQGLFLVATNPVDILTYATWKFSGLPHERVIGSGTILDTARFRFLLGEYFSVAPQNVHAYIIGEHGDTELPVWSQAYIGVMPIRKLVESKGEEAQKDLERIFVNVRDGGYQIIEKKGATYYGIAMGLARVTRAILHNENAILTVSAYLDGLYGERDVYIGVPAVINRNGIREVIEIELNDDEKNRFHHSAATLKSVLARAFTR
notes: as for B2
In the case of B3, in data set [3] (other: MVS/GG), the Km was found to be 14.5 µM.

B4: Bacillus stearothermophilus L-lactate dehydrogenase variant GG (235-6 AA→GG) (Geobacillus stearothermophilus; A222G/A223G) (protein)
chain: MKNNGGARVVVIGAGFVGASYVFALMNQGIADEIVLIDANESKAIGDAMDFNHGKVFAPKPVDIWHGDYDDCRDADLVVICAGANQKPGETRLDLVDKNIAIFRSIVESVMASGFQGLFLVATNPVDILTYATWKFSGLPHERVIGSGTILDTARFRFLLGEYFSVAPQNVHAYIIGEHGDTELPVWSQAYIGVMPIRKLVESKGEEAQKDLERIFVNVRDGGYQIIEKKGATYYGIAMGLARVTRAILHNENAILTVSAYLDGLYGERDVYIGVPAVINRNGIREVIEIELNDDEKNRFHHSAATLKSVLARAFTR
Regarding B4, in data set [5], the Michaelis constant (Km) is 18 µM.
